The values that follow come from article PMC11253611, “The chaperone PrsA2 regulates the secretion, stability, and folding of listeriolysin O during Listeria monocytogenes infection” (mBio, 2024).

A word on the Kd: it is the free concentration of one partner at which half of the binding sites on the other are occupied at equilibrium, for simple one-to-one binding. A word on the stoichiometry N: it is the number of molecules, sites or subunits per partner or assembly.

Where a chain is given by its changes, count along the chain named. Numbers in names are those of the source.

Data set [1] concerns the target recombinant listeriolysin O (without the signal sequence, 25-529) (Listeria monocytogenes 10403S) (UniProt P13128). Nature of the data set: MST; pH 6.5, 25°C; NHS-dye-labelled PrsA2 or mutant (20-150 nM) with serially diluted unlabelled LLO; 20 mM MES, 100 mM NaCl, 1 mM β-mercaptoethanol, 10% glycerol, 0.05% Tween 20; 1:1 model in PALMIST.
Data set [2] shares this target. Nature of the data set: ITC; pH 6.5, 25°C; PrsA2 (19.0 µM) or mutant titrated into LLO (0.4 µM); 20 mM MES, 100 mM NaCl, 1 mM β-mercaptoethanol, 10% glycerol; independent binding model; n counts PrsA2 monomers per LLO. For orientation: Isothermal titration calorimetry measures the heat released or taken up as one component is titrated into another.
In data set [3] the target is T1, recombinant listeriolysin O (without the signal sequence, 25-529) (Listeria monocytogenes 10403S, UniProt P13128 25-529).
T1 construct: also called LLO; source: E. coli BL21 (DE3*), purified (nickel-NTA, dialysis)
Nature of the data set: ITC; pH 5.5, 37°C; PrsA2 titrated into LLO; 20 mM MES, 100 mM NaCl, 1 mM β-mercaptoethanol, 10% glycerol; independent binding model; n counts PrsA2 monomers per LLO. The following applies: both partners purified.

Data set [4] addresses T1, recombinant listeriolysin O (without …). Kind of data set: ITC; pH 6.5, 25°C; PrsA2 (19.0 µM) or mutant titrated into LLO (0.4 µM); 20 mM MES, 100 mM NaCl, 1 mM β-mercaptoethanol, 10% glycerol; independent binding model; n counts PrsA2 monomers per LLO. The following applies: both partners purified.
Data set [5] shares this target. Nature of the data set: MST; pH 7.4, 25°C; NHS-dye-labelled PrsA2 (20-150 nM) with serially diluted unlabelled LLO; 20 mM MES, 100 mM NaCl, 1 mM β-mercaptoethanol, 10% glycerol, 0.05% Tween 20; 1:1 model in PALMIST. Conditions: both partners purified.
Data set [6] shares this target. Nature of the data set: ITC; pH 5.5, 25°C; PrsA2 titrated into LLO; 20 mM MES, 100 mM NaCl, 1 mM β-mercaptoethanol, 10% glycerol; independent binding model; n counts PrsA2 monomers per LLO. The following applies: both partners purified.
For data set [7] the target is unchanged. Kind of data set: MST; pH 5.5, 37°C; NHS-dye-labelled PrsA2 (20-150 nM) with serially diluted unlabelled LLO; 20 mM MES, 100 mM NaCl, 1 mM β-mercaptoethanol, 10% glycerol, 0.05% Tween 20; 1:1 model in PALMIST. Conditions: both partners purified.
Data set [8] concerns the molecule itself. Nature of the data set: cross-linking; 500 ng His-tagged protein with 10 µM BS3 for 1 hour at room temperature in 20 mM HEPES, 200 mM NaCl, pH 6.5; heated at 85°C, SDS-PAGE, anti-His Western blot.
Data set [9] deals with T1, recombinant listeriolysin O (without …). Kind of data set: MST; pH 7.4, 37°C; NHS-dye-labelled PrsA2 (20-150 nM) with serially diluted unlabelled LLO; 20 mM MES, 100 mM NaCl, 1 mM β-mercaptoethanol, 10% glycerol, 0.05% Tween 20; 1:1 model in PALMIST. The following applies: both partners purified.
For data set [10] the target is unchanged. Kind of data set: MST; pH 6.5, 37°C; NHS-dye-labelled PrsA2 (20-150 nM) with serially diluted unlabelled LLO; 20 mM MES, 100 mM NaCl, 1 mM β-mercaptoethanol, 10% glycerol, 0.05% Tween 20; 1:1 model in PALMIST. Conditions: both partners purified.
Data set [11] has the same target. Nature of the data set: MST; pH 6.5, 25°C; NHS-dye-labelled PrsA2 or mutant (20-150 nM) with serially diluted unlabelled LLO; 20 mM MES, 100 mM NaCl, 1 mM β-mercaptoethanol, 10% glycerol, 0.05% Tween 20; 1:1 model in PALMIST. The following applies: both partners purified.
The target is the same in data set [12]. Nature of the data set: ITC; pH 7.4, 37°C; PrsA2 titrated into LLO at low LLO concentrations to mitigate heats of self-aggregation; 20 mM MES, 100 mM NaCl, 1 mM β-mercaptoethanol, 10% glycerol; independent binding model; n counts PrsA2 monomers per LLO. Conditions: both partners purified.
Data set [13] shares this target. Kind of data set: ITC; pH 6.5, 25°C; PrsA2 (19.0 µM) or mutant titrated into LLO (0.4 µM); 20 mM MES, 100 mM NaCl, 1 mM β-mercaptoethanol, 10% glycerol; independent binding model; n counts PrsA2 monomers per LLO. Conditions: both partners purified. This is another data set of the same source.
For data set [14] the target is unchanged. Kind of data set: ITC; pH 7.4, 25°C; PrsA2 titrated into LLO; 20 mM MES, 100 mM NaCl, 1 mM β-mercaptoethanol, 10% glycerol; independent binding model; n counts PrsA2 monomers per LLO. The following applies: both partners purified.
Data set [15] has the same target. Nature of the data set: ITC; pH 6.5, 37°C; PrsA2 titrated into LLO; 20 mM MES, 100 mM NaCl, 1 mM β-mercaptoethanol, 10% glycerol; independent binding model; n counts PrsA2 monomers per LLO. Conditions: both partners purified.
Data set [16] has the same target. Nature of the data set: MST; pH 5.5, 25°C; NHS-dye-labelled PrsA2 (20-150 nM) with serially diluted unlabelled LLO; 20 mM MES, 100 mM NaCl, 1 mM β-mercaptoethanol, 10% glycerol, 0.05% Tween 20; 1:1 model in PALMIST. Conditions: both partners purified.
Data set [17] has the same target. Kind of data set: ITC; pH 6.5, 25°C; PrsA2 (19.0 µM) or mutant titrated into LLO (0.4 µM); 20 mM MES, 100 mM NaCl, 1 mM β-mercaptoethanol, 10% glycerol; independent binding model; n counts PrsA2 monomers per LLO. The following applies: both partners purified. This is another data set of the same source.
The target is the same in data set [18]. Nature of the data set: MST; pH 6.5, 25°C; NHS-dye-labelled PrsA2 or mutant (20-150 nM) with serially diluted unlabelled LLO; 20 mM MES, 100 mM NaCl, 1 mM β-mercaptoethanol, 10% glycerol, 0.05% Tween 20; 1:1 model in PALMIST. The following applies: both partners purified. The source holds these as a separate data set.
For data set [19] the target is unchanged. The description is as above. Conditions: both partners purified. This is another data set of the same source.
For data set [20] the target is unchanged. Nature of the data set: cell-based or functional assay.

As to “PrsA2 N+C (foldase domain only, lacks the entire PPIase domain) (from UniProt Q8Y557 21-293) (domain or fragment)”, the Kd in [1] was determined as 330 nM. Moreover, in [2], the equilibrium dissociation constant (Kd) amounted to 357 nM, the dH is -16.6 kcal/mol and the stoichiometry N is 2.08.

B1: recombinant PrsA2 (wild type, without the signal sequence) (natural protein)
chain: CGGGGDVVKTDSGDVTKDELYDAMKDKYGSEFVQQLTFEKILGDKYKVSDEDVDKKFNEYKSQYGDQFSAVLTQSGLTEKSFKSQLKYNLLVQKATEANTDTSDKTLKKYYETWQPDITVSHILVADENKAKEVEQKLKDGEKFADLAKEYSTDTATKDNGGQLAPFGPGKMDPAFEKAAYALKNKGDISAPVKTQYGYHIIQMDKPATKTTFEKDKKAVKASYLESQLTTENMQKTLKKEYKDANVKVEDKDLKDAFKDFDGSSSSDSDSSK
notes: also called Lm PrsA2; pQE60-prsA2; source: E. coli BL21 (DE3*), purified (nickel-NTA, dialysis)
Regarding B1, the Kd in data set [3] was determined as 330 nM; in data set [4], 37.8 nM; in data set [5] it was 23 nM; in data set [6], 201 nM; in data set [7] it was 190 nM; in data set [9] it was 39 nM. The Kd was 28 nM in data set [10]; 12 nM in data set [11]; 67.2 nM in data set [12]; 37.7 nM in data set [13]; 46.1 nM in data set [14]; 88.3 nM in [15]. Besides, the Kd in [16] turned out to be 150 nM. Further, the dH in [3] was -5.49 kcal/mol; in data set [6], -7.93 kcal/mol; in data set [12] it was -12.8 kcal/mol; in data set [13], -105 kcal/mol; in data set [14], -21.7 kcal/mol; in [15] it was -30.9 kcal/mol. Besides, the “stoichiometry N” value in data set [3] was 1.95; in [6], 1.96; in data set [8], 2; in data set [12], 2.01; in data set [13], 2.21; in data set [14], 2.11. In data set [15], the “stoichiometry N” value was determined as 1.73. Moreover, in [4], the Ka amounted to 2.65e+07 M⁻¹.

B2: PrsA2 No dimer mutant/PrsA2^M (V28A/L40A/Y41A/M44A) (natural protein, Listeria monocytogenes, UniProt Q8Y557 21-293, looked up)
chain: B1 chain with V8A, L20A, Y21A, M24A
modifications: Red NHS dye (NanoTemper 2nd Generation) on primary amines, in the MST experiments only
notes: Same limits and tag as m1; also called PrsA2 monomer; PrsA2 dimer mutant; source: E. coli BL21 (DE3*), purified (nickel-NTA, dialysis)
Consider B2, for which, in [17], the Kd stood at 206 nM, the dH was -21.3 kcal/mol and the “stoichiometry N” value amounted to 2.06. In addition, the Kd in data set [18] was roughly 330 nM. For the same molecule, the Kd in data set [19] is 190 nM. Moreover, in data set [20], the “LLO hemolytic activity at pH 5.5 and 30°C after 1 hour at pH 7.4 and 37°C with the chaperone mutant at a 30:1 molar ratio (protection assay), against wild-type PrsA2 or PrsA2 N+C” value is roughly 2 fold.

B3: PrsA2 V91T (natural protein, Listeria monocytogenes, UniProt Q8Y557 21-293, looked up)
chain: B1 chain with V71T
modifications: Red NHS dye (NanoTemper 2nd Generation) on primary amines, in the MST experiments only
notes: Same limits and tag as m1; also called foldase domain mutant; source: E. coli BL21 (DE3*), purified (nickel-NTA, dialysis)
For the molecule B3, in data set [17], the Kd amounted to 9.64 nM, the dH was -4.21 kcal/mol and the “stoichiometry N” value is 2.11. The equilibrium dissociation constant (Kd) in data set [19] came out at 2.8 nM. Also, the “LLO hemolytic activity at pH 5.5 and 30°C after 1 hour at pH 7.4 and 37°C with the chaperone mutant at a 30:1 molar ratio (protection assay), against wild-type PrsA2 or PrsA2 N+C” value in data set [20] is roughly 2 fold.
